In the supplement of paper PMC7125110:
± gives the standard error. This sample holds only a part of the variants without activity.

B1: glmS ribozyme (parent)
chain: AUAAAAGCGCCAGAACUACAGAAAUGUAGUUGACGAGGAGGAGGUUUAUCGAAUUUUCGGCGGAUGCCUCCAAA

Experiments:
Conditions in all cases: with glucosamine-6-phosphate
[1] = variants of: B1; experiment: self-cleavage kobs at 40 uM GlcN6P; higher = faster cleavage; RNA array
In short: (§1)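 Sequenced MiSeq chips were the platform: E. coli RNA polymerase transcribed barcoded ribozyme variants on them in situ, and a hybridised Cy3 probe tracked these at 37 °C. After glucosamine-6-phosphate (40 μM to 10 mM) in HEPES/KCl/Mg(OAc)2 buffer was flowed in, tiles were imaged over ~14 h. Signals normalised to baseline and to non-cleaving reference variants were reduced to per-tile medians and fit to one- or two-exponential decays to obtain kobs. kcat and KM were derived through weighted Michaelis–Menten fits across concentrations.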

[2] = variants of: B1; experiment: self-cleavage kobs at 2500 uM GlcN6P; higher = faster cleavage; RNA array
In short: as §1

[3] = variants of: B1; experiment: self-cleavage kobs at 10000 uM GlcN6P; higher = faster cleavage; RNA array
In short: as §1

[4] = variants of: B1; experiment: self-cleavage kobs at 640 uM GlcN6P; higher = faster cleavage; RNA array
In short: as §1

[5] = variants of: B1; experiment: self-cleavage kobs at 160 uM GlcN6P; higher = faster cleavage; RNA array
In short: as §1

Row | Variant | self-cleavage kobs at 40 uM GlcN6P [1] [s⁻¹] | self-cleavage kobs at 2500 uM GlcN6P [2] [s⁻¹] | self-cleavage kobs at 10000 uM GlcN6P [3] [s⁻¹] | self-cleavage kobs at 640 uM GlcN6P [4] [s⁻¹] | self-cleavage kobs at 160 uM GlcN6P [5] [s⁻¹]
1 | C10A A14G G44C | < 1e-05 | < 1e-05 | < 1e-05 | – | –
2 | G9C C10U G37U | < 1e-05 | – | – | < 1e-05 | –
3 | C10U G32A G43A C71A | < 1e-05 | – | – | – | –
4 | G9A G13A G63C | < 1e-05 | – | < 1e-05 | – | –
5 | G9A C10G | < 1e-05 | < 1e-05 | – | – | < 1e-05
6 | G9A G59U A64U U65C | < 1e-05 | – | < 1e-05 | – | –
7 | C8U U57C | < 1e-05 | < 1e-05 | < 1e-05 | < 1e-05 | < 1e-05
8 | C10U A52C | < 1e-05 | – | < 1e-05 | – | –
9 | G9A G13C | < 1e-05 | < 1e-05 | – | < 1e-05 | < 1e-05
10 | G9C U31G | < 1e-05 | < 1e-05 | – | < 1e-05 | < 1e-05
11 | C10U G29U C34A | < 1e-05 | < 1e-05 | < 1e-05 | – | –
12 | G9A A53U | < 1e-05 | – | – | < 1e-05 | < 1e-05
13 | C10A U31G A48G C67G | < 1e-05 | – | < 1e-05 | – | –
14 | C10G U30A C71G | < 1e-05 | – | – | – | –
15 | G9C G44A | < 1e-05 | < 1e-05 | < 1e-05 | < 1e-05 | < 1e-05
16 | C10U G21U G59C | < 1e-05 | < 1e-05 | – | < 1e-05 | –
17 | C10A C11G G60U C61G | < 1e-05 | – | < 1e-05 | – | –
18 | C10G G35C G40A U57G | < 1e-05 | < 1e-05 | – | – | –
19 | G9U G44U | < 1e-05 | < 1e-05 | < 1e-05 | < 1e-05 | –
20 | G9U G62C | < 1e-05 | – | < 1e-05 | – | < 1e-05
21 | G9A A42C C71A | < 1e-05 | < 1e-05 | < 1e-05 | < 1e-05 | < 1e-05
22 | G9U G32A A53C U55G G63U | < 1e-05 | – | – | – | –
23 | C10U G40U | < 1e-05 | – | < 1e-05 | – | –
24 | C10U G40C | < 1e-05 | < 1e-05 | < 1e-05 | – | < 1e-05
25 | C10U C11G | < 1e-05 | < 1e-05 | < 1e-05 | < 1e-05 | –

Row | Variant | self-cleavage kobs at 40 uM GlcN6P [1] [s⁻¹] | self-cleavage kobs at 2500 uM GlcN6P [2] [s⁻¹] | self-cleavage kobs at 10000 uM GlcN6P [3] [s⁻¹] | self-cleavage kobs at 640 uM GlcN6P [4] [s⁻¹] | self-cleavage kobs at 160 uM GlcN6P [5] [s⁻¹]
26 | G9U G44C A64C | < 1e-05 | – | < 1e-05 | – | –
27 | G9C A39C G44C | < 1e-05 | – | – | – | –
28 | G9A C50G C70G | 9.06e-05 ± 2.7e-05 | – | 4.63e-05 ± 1.4e-05 | – | –
29 | C10A G62C | < 1e-05 | – | – | < 1e-05 | < 1e-05
30 | C10G G41U | < 1e-05 | < 1e-05 | < 1e-05 | < 1e-05 | < 1e-05
31 | G9A A64C | < 1e-05 | < 1e-05 | – | < 1e-05 | < 1e-05
32 | G9A G43C | < 1e-05 | – | – | – | –
33 | C10A G13A U30C G40A | < 1e-05 | – | – | – | –
34 | G9C A15U | < 1e-05 | < 1e-05 | < 1e-05 | < 1e-05 | < 1e-05
35 | G9C A12G G37C U47C G60A C71U | < 1e-05 | – | < 1e-05 | – | –
36 | C10G G44A | < 1e-05 | – | < 1e-05 | < 1e-05 | < 1e-05
37 | G9A C34U | < 1e-05 | – | < 1e-05 | < 1e-05 | –
38 | G9A G13A G43U G60A | < 1e-05 | – | – | – | –
39 | C10A A52U U56G | < 1e-05 | < 1e-05 | < 1e-05 | < 1e-05 | < 1e-05
40 | G9U C16A | < 1e-05 | < 1e-05 | < 1e-05 | < 1e-05 | < 1e-05
41 | G9C U30A U46C U56A | < 1e-05 | – | < 1e-05 | – | –
42 | C10A C50G | 7.92e-05 ± 1.7e-05 | 0.000174 ± 3.5e-05 | 6.81e-05 ± 1.2e-05 | 0.000189 ± 4.1e-05 | 0.000235 ± 5.6e-05
43 | C10A U30C C61A | < 1e-05 | – | – | – | –
44 | G9A A12U C61A | < 1e-05 | – | – | – | –
45 | C10U A39G C71A | < 1e-05 | – | – | – | –
46 | C10U A12G U46A U47G U49G | < 1e-05 | – | – | – | –
47 | G9A C11G G35U G37U C61U | < 1e-05 | < 1e-05 | – | – | –
48 | G9C G38U G63A | < 1e-05 | – | – | – | –
49 | C10U A15C C34A A36G G43C U49C | < 1e-05 | < 1e-05 | < 1e-05 | – | < 1e-05
50 | C10U A12C A53C | < 1e-05 | – | – | – | –

Row | Variant | self-cleavage kobs at 40 uM GlcN6P [1] [s⁻¹] | self-cleavage kobs at 2500 uM GlcN6P [2] [s⁻¹] | self-cleavage kobs at 10000 uM GlcN6P [3] [s⁻¹] | self-cleavage kobs at 640 uM GlcN6P [4] [s⁻¹] | self-cleavage kobs at 160 uM GlcN6P [5] [s⁻¹]
51 | G9C A48C | < 1e-05 | < 1e-05 | – | < 1e-05 | –
52 | C10G U45G | < 1e-05 | < 1e-05 | < 1e-05 | < 1e-05 | < 1e-05
53 | G9U C10U A36U G51A C70G | < 1e-05 | – | – | – | –
54 | G9A G13U A15G G37C A39C A53U C67G C68A | 0.000469 ± 0.00015 | – | 0.000282 ± 7.8e-05 | 0.000121 ± 4.4e-05 | –
55 | C10A A39U U69C | < 1e-05 | – | < 1e-05 | – | –
56 | G9U C68A | < 1e-05 | < 1e-05 | < 1e-05 | – | < 1e-05
57 | G9U A64G | < 1e-05 | – | < 1e-05 | – | < 1e-05
58 | G9A C11U | < 1e-05 | < 1e-05 | < 1e-05 | < 1e-05 | < 1e-05
59 | G9C U46C | < 1e-05 | – | < 1e-05 | < 1e-05 | –
60 | C10A U30G C71U | < 1e-05 | – | < 1e-05 | – | –
61 | G9U C34U | < 1e-05 | < 1e-05 | < 1e-05 | < 1e-05 | –
62 | G9U C34A | < 1e-05 | – | < 1e-05 | < 1e-05 | < 1e-05
63 | G9A C70U | < 1e-05 | – | 2.28e-05 ± 1e-05 | < 1e-05 | –
64 | C8U U69G | 0.000157 ± 3.4e-05 | – | 0.000167 ± 3.1e-05 | 0.00216 ± 0.00095 | –
65 | G9A C11A G35C A42G | < 1e-05 | – | < 1e-05 | – | –
66 | C10A U45G G63U | < 1e-05 | – | < 1e-05 | – | –
67 | G9U A14C | < 1e-05 | – | – | < 1e-05 | < 1e-05
68 | C10G C50U U54G U56G | < 1e-05 | – | < 1e-05 | – | –
69 | C10U G32A A39C U57C C61G C68G | < 1e-05 | – | < 1e-05 | < 1e-05 | –
70 | C8U U47A | < 1e-05 | – | < 1e-05 | < 1e-05 | < 1e-05
71 | G9C G63A A64C C70G | < 1e-05 | – | < 1e-05 | – | –
72 | C10G A53U G59A C70G | < 1e-05 | – | < 1e-05 | – | –
73 | G9A U47G A48U | < 1e-05 | – | – | – | –
74 | G9A G29C G32C U45C A53C | < 1e-05 | – | – | – | –
75 | C10U C67U C70U | < 1e-05 | – | < 1e-05 | – | –

Row | Variant | self-cleavage kobs at 40 uM GlcN6P [1] [s⁻¹] | self-cleavage kobs at 2500 uM GlcN6P [2] [s⁻¹] | self-cleavage kobs at 10000 uM GlcN6P [3] [s⁻¹] | self-cleavage kobs at 640 uM GlcN6P [4] [s⁻¹] | self-cleavage kobs at 160 uM GlcN6P [5] [s⁻¹]
76 | G9U G35C G66U | < 1e-05 | – | < 1e-05 | – | –
77 | C10U G37U | < 1e-05 | – | < 1e-05 | < 1e-05 | –
78 | G9A G32A | < 1e-05 | < 1e-05 | < 1e-05 | < 1e-05 | –
79 | C10U A14C C61U | < 1e-05 | – | < 1e-05 | – | –
80 | C10G U56G C68A | < 1e-05 | – | – | – | –
81 | G9A G62A | < 1e-05 | – | – | < 1e-05 | < 1e-05
82 | C10A U45G | < 1e-05 | < 1e-05 | < 1e-05 | < 1e-05 | –
83 | G9A A39U G44A U55C | < 1e-05 | – | < 1e-05 | – | –
84 | G9C A39G G40U U49C | < 1e-05 | – | < 1e-05 | – | –
85 | C10G G13A U47G | < 1e-05 | – | – | – | –
86 | G9U U30C G43A | < 1e-05 | – | – | < 1e-05 | –
87 | G9A A52U U65G | < 1e-05 | – | – | – | –
88 | G9A G40U C50G | < 1e-05 | – | – | – | –
89 | C10U C50U U57C | < 1e-05 | – | – | – | –
90 | C10U A39U G43C | < 1e-05 | – | < 1e-05 | – | –
91 | C10A G41U G44U | < 1e-05 | < 1e-05 | – | < 1e-05 | < 1e-05
92 | C10G U47C U54C | < 1e-05 | < 1e-05 | – | – | –
93 | C10G G32C A48U | < 1e-05 | – | < 1e-05 | – | –
94 | C10U C68A C71U | < 1e-05 | – | – | – | –
95 | G9A G63C | < 1e-05 | – | < 1e-05 | – | –
96 | G9U A36C G38C | < 1e-05 | – | < 1e-05 | – | –
97 | G9C G32C C68A | < 1e-05 | < 1e-05 | < 1e-05 | < 1e-05 | –
98 | C10A A14C | < 1e-05 | < 1e-05 | – | < 1e-05 | –
